Results: patent publication US9993529B2, “Stable formulations of a hyaluronan-degrading enzyme” (Halozyme, Inc., priority 2011, dated 2018)

Experiment: RP-HPLC insulin percent purity
Format: physicochemical
Protocol: Apparent solubility was measured as the percent insulin recovery as compared to the initial formulations/conditions.
To determine the apparent solubility, the peak area of insulin/insulin analog main peak and desamido peak were integrated and combined together to calculate the percentage relative to the standards. […] The data were processed using Design-Expert® 7.0 (StatEase) and the “historical data” feature. Insulin percent purity was expressed as the percent of main insulin versus all insulin species.

Regular Insulin: mature human insulin, SEQ ID NOS: 103 and 104
Percent of insulin main peak (50 mM NaCl, pH 7.0, 0 months at 2-8° C.): 97.64%
Percent of insulin main peak (50 mM NaCl, pH 7.0, 0.25 months at 2-8° C.): 97.59%
Percent of insulin main peak (50 mM NaCl, pH 7.0, 0.5 months at 2-8° C.): 97.50%
Percent of insulin main peak (50 mM NaCl, pH 7.0, 1 month at 2-8° C.): 97.44%
Percent of insulin main peak (50 mM NaCl, pH 7.0, 3 months at 2-8° C.): 97.24%
Percent of insulin main peak (50 mM NaCl, pH 7.0, 5 months at 2-8° C.): 97.73%
Percent of insulin main peak (50 mM NaCl, pH 7.0, 9 months at 2-8° C.): 97.20%
Percent of insulin main peak (50 mM NaCl, pH 7.2, 0 months at 2-8° C.): 97.64%
Percent of insulin main peak (50 mM NaCl, pH 7.2, 0.25 months at 2-8° C.): 97.59%
Percent of insulin main peak (50 mM NaCl, pH 7.2, 0.5 months at 2-8° C.): 97.56%
Percent of insulin main peak (50 mM NaCl, pH 7.2, 1 month at 2-8° C.): 97.46%
Percent of insulin main peak (50 mM NaCl, pH 7.2, 3 months at 2-8° C.): 97.47%
Percent of insulin main peak (50 mM NaCl, pH 7.2, 5 months at 2-8° C.): 97.75%
Percent of insulin main peak (50 mM NaCl, pH 7.2, 9 months at 2-8° C.): 97.27%
Percent of insulin main peak (50 mM NaCl, pH 7.4, 0 months at 2-8° C.): 97.58%
Percent of insulin main peak (50 mM NaCl, pH 7.4, 0.25 months at 2-8° C.): 97.54%
Percent of insulin main peak (50 mM NaCl, pH 7.4, 0.5 months at 2-8° C.): 97.48%
Percent of insulin main peak (50 mM NaCl, pH 7.4, 1 month at 2-8° C.): 97.47%
Percent of insulin main peak (50 mM NaCl, pH 7.4, 3 months at 2-8° C.): 97.45%
Percent of insulin main peak (50 mM NaCl, pH 7.4, 5 months at 2-8° C.): 97.74%
Percent of insulin main peak (50 mM NaCl, pH 7.4, 9 months at 2-8° C.): 97.27%
Percent of insulin main peak (50 mM NaCl, pH 7.6, 0 months at 2-8° C.): 97.65%
Percent of insulin main peak (50 mM NaCl, pH 7.6, 0.25 months at 2-8° C.): 97.58%
Percent of insulin main peak (50 mM NaCl, pH 7.6, 0.5 months at 2-8° C.): 97.33%
Percent of insulin main peak (50 mM NaCl, pH 7.6, 1 month at 2-8° C.): 97.44%
Percent of insulin main peak (50 mM NaCl, pH 7.6, 3 months at 2-8° C.): 97.35%
Percent of insulin main peak (50 mM NaCl, pH 7.6, 5 months at 2-8° C.): 97.66%
Percent of insulin main peak (50 mM NaCl, pH 7.6, 9 months at 2-8° C.): 97.34%
Percent of insulin main peak (80 mM NaCl, pH 7.0, 0 months at 2-8° C.): 97.65%
Percent of insulin main peak (80 mM NaCl, pH 7.0, 0.25 months at 2-8° C.): 97.50%
Percent of insulin main peak (80 mM NaCl, pH 7.0, 0.5 months at 2-8° C.): 97.30%
Percent of insulin main peak (80 mM NaCl, pH 7.0, 1 month at 2-8° C.): 97.20%
Percent of insulin main peak (80 mM NaCl, pH 7.0, 5 months at 2-8° C.): 97.81%
Percent of insulin main peak (80 mM NaCl, pH 7.0, 9 months at 2-8° C.): 96.18%
Percent of insulin main peak (80 mM NaCl, pH 7.2, 0 months at 2-8° C.): 97.57%
Percent of insulin main peak (80 mM NaCl, pH 7.2, 0.25 months at 2-8° C.): 97.59%
Percent of insulin main peak (80 mM NaCl, pH 7.2, 0.5 months at 2-8° C.): 97.30%
Percent of insulin main peak (80 mM NaCl, pH 7.2, 1 month at 2-8° C.): 97.45%
Percent of insulin main peak (80 mM NaCl, pH 7.2, 3 months at 2-8° C.): 97.34%
Percent of insulin main peak (80 mM NaCl, pH 7.2, 5 months at 2-8° C.): 97.64%
Percent of insulin main peak (80 mM NaCl, pH 7.4, 0 months at 2-8° C.): 97.56%
Percent of insulin main peak (80 mM NaCl, pH 7.4, 0.25 months at 2-8° C.): 97.61%
Percent of insulin main peak (80 mM NaCl, pH 7.4, 0.5 months at 2-8° C.): 97.51%
Percent of insulin main peak (80 mM NaCl, pH 7.4, 1 month at 2-8° C.): 97.43%
Percent of insulin main peak (80 mM NaCl, pH 7.4, 3 months at 2-8° C.): 97.43%
Percent of insulin main peak (80 mM NaCl, pH 7.4, 5 months at 2-8° C.): 97.75%
Percent of insulin main peak (80 mM NaCl, pH 7.4, 9 months at 2-8° C.): 97.29%
Percent of insulin main peak (80 mM NaCl, pH 7.6, 0 months at 2-8° C.): 97.63%
Percent of insulin main peak (80 mM NaCl, pH 7.6, 0.25 months at 2-8° C.): 97.62%
Percent of insulin main peak (80 mM NaCl, pH 7.6, 0.5 months at 2-8° C.): 97.52%
Percent of insulin main peak (80 mM NaCl, pH 7.6, 1 month at 2-8° C.): 97.37%
Percent of insulin main peak (80 mM NaCl, pH 7.6, 3 months at 2-8° C.): 97.64%
Percent of insulin main peak (80 mM NaCl, pH 7.6, 5 months at 2-8° C.): 97.67%
Percent of insulin main peak (80 mM NaCl, pH 7.6, 9 months at 2-8° C.): 97.31%
Percent of insulin main peak (110 mM NaCl, pH 7.0, 0 months at 2-8° C.): 97.64%
Percent of insulin main peak (110 mM NaCl, pH 7.0, 0.25 months at 2-8° C.): 97.31%
Percent of insulin main peak (110 mM NaCl, pH 7.0, 0.5 months at 2-8° C.): 97.57%
Percent of insulin main peak (110 mM NaCl, pH 7.0, 1 month at 2-8° C.): 96.64%
Percent of insulin main peak (110 mM NaCl, pH 7.0, 3 months at 2-8° C.): 96.10%
Percent of insulin main peak (110 mM NaCl, pH 7.0, 5 months at 2-8° C.): 97.79%
Percent of insulin main peak (110 mM NaCl, pH 7.2, 0 months at 2-8° C.): 97.62%
Percent of insulin main peak (110 mM NaCl, pH 7.2, 0.25 months at 2-8° C.): 97.46%
Percent of insulin main peak (110 mM NaCl, pH 7.2, 0.5 months at 2-8° C.): 97.35%
Percent of insulin main peak (110 mM NaCl, pH 7.2, 3 months at 2-8° C.): 97.49%
Percent of insulin main peak (110 mM NaCl, pH 7.2, 5 months at 2-8° C.): 97.61%
Percent of insulin main peak (110 mM NaCl, pH 7.2, 9 months at 2-8° C.): 95.91%
Percent of insulin main peak (110 mM NaCl, pH 7.4, 0 months at 2-8° C.): 97.65%
Percent of insulin main peak (110 mM NaCl, pH 7.4, 0.25 months at 2-8° C.): 97.58%
Percent of insulin main peak (110 mM NaCl, pH 7.4, 0.5 months at 2-8° C.): 97.39%
Percent of insulin main peak (110 mM NaCl, pH 7.4, 1 month at 2-8° C.): 97.36%
Percent of insulin main peak (110 mM NaCl, pH 7.4, 3 months at 2-8° C.): 97.36%
Percent of insulin main peak (110 mM NaCl, pH 7.4, 5 months at 2-8° C.): 97.79%
Percent of insulin main peak (110 mM NaCl, pH 7.4, 9 months at 2-8° C.): 96.91%
Percent of insulin main peak (110 mM NaCl, pH 7.6, 0 months at 2-8° C.): 97.58%
Percent of insulin main peak (110 mM NaCl, pH 7.6, 0.25 months at 2-8° C.): 97.57%
Percent of insulin main peak (110 mM NaCl, pH 7.6, 0.5 months at 2-8° C.): 97.60%
Percent of insulin main peak (110 mM NaCl, pH 7.6, 1 month at 2-8° C.): 97.52%
Percent of insulin main peak (110 mM NaCl, pH 7.6, 3 months at 2-8° C.): 97.42%
Percent of insulin main peak (110 mM NaCl, pH 7.6, 5 months at 2-8° C.): 97.61%
Percent of insulin main peak (110 mM NaCl, pH 7.6, 9 months at 2-8° C.): 97.31%
Percent of insulin main peak (140 mM NaCl, pH 7.0, 0 months at 2-8° C.): 97.65%
Percent of insulin main peak (140 mM NaCl, pH 7.0, 0.25 months at 2-8° C.): 97.15%
Percent of insulin main peak (140 mM NaCl, pH 7.0, 1 month at 2-8° C.): 96.39%
Percent of insulin main peak (140 mM NaCl, pH 7.0, 3 months at 2-8° C.): 96.16%
Percent of insulin main peak (140 mM NaCl, pH 7.0, 9 months at 2-8° C.): 95.17%
Percent of insulin main peak (140 mM NaCl, pH 7.2, 0 months at 2-8° C.): 97.56%
Percent of insulin main peak (140 mM NaCl, pH 7.2, 0.25 months at 2-8° C.): 97.37%
Percent of insulin main peak (140 mM NaCl, pH 7.2, 1 month at 2-8° C.): 96.62%
Percent of insulin main peak (140 mM NaCl, pH 7.2, 3 months at 2-8° C.): 96.60%
Percent of insulin main peak (140 mM NaCl, pH 7.2, 9 months at 2-8° C.): 95.49%
Percent of insulin main peak (140 mM NaCl, pH 7.4, 0 months at 2-8° C.): 97.64%
Percent of insulin main peak (140 mM NaCl, pH 7.4, 0.25 months at 2-8° C.): 97.57%
Percent of insulin main peak (140 mM NaCl, pH 7.4, 0.5 months at 2-8° C.): 97.33%
Percent of insulin main peak (140 mM NaCl, pH 7.4, 1 month at 2-8° C.): 97.23%
Percent of insulin main peak (140 mM NaCl, pH 7.4, 3 months at 2-8° C.): 97.38%
Percent of insulin main peak (140 mM NaCl, pH 7.4, 5 months at 2-8° C.): 97.73%
Percent of insulin main peak (140 mM NaCl, pH 7.4, 9 months at 2-8° C.): 96.10%
Percent of insulin main peak (140 mM NaCl, pH 7.6, 0 months at 2-8° C.): 97.64%
Percent of insulin main peak (140 mM NaCl, pH 7.6, 0.25 months at 2-8° C.): 97.61%
Percent of insulin main peak (140 mM NaCl, pH 7.6, 0.5 months at 2-8° C.): 97.41%
Percent of insulin main peak (140 mM NaCl, pH 7.6, 1 month at 2-8° C.): 97.51%
Percent of insulin main peak (140 mM NaCl, pH 7.6, 3 months at 2-8° C.): 97.35%
Percent of insulin main peak (140 mM NaCl, pH 7.6, 5 months at 2-8° C.): 97.56%
Percent of insulin main peak (140 mM NaCl, pH 7.6, 9 months at 2-8° C.): 97.07%
insulin main peak percentage (regular insulin/rHuPH20, long term storage at 2-8° C.): about 97%
